# Measurements reported in PMC8215223.
# B1: GFP-WT-HOOK3 [human] / GM130 (endogenous) [human (endogenous in HeLa)] (parent)
# chain 1: MFSVESLERAELCESLLTWIQTFNVDAPCQTVEDLTNGVVMAQVLQKIDPAYFDENWLNRIKTEVGDNWRLKISNLKKILKGILDYNHEILGQQINDFTLPDVNLIGEHSDAAELGRMLQLILGCAVNCEQKQEYIQAIMMMEESVQHVVMTAIQELMSKESPVSAGNDAYVDLDRQLKKTTEELNEALSAKEEIAQRCHELDMQVAALQEEKSSLLAENQVLMERLNQSDSIEDPNSPAGRRHLQLQTQLEQLQEETFRLEAAKDDYRIRCEELEKEISELRQQNDELTTLADEAQSLKDEIDVLRHSSDKVSKLEGQVESYKKKLEDLGDLRRQVKLLEEKNTMYMQNTVSLEEELRKANAARSQLETYKRQVVELQNRLSEESKKADKLDFEYKRLKEKVDSLQKEKDRLRTERDSLKETIEELRCVQAQEGQLTTQGLMPLGSQESSDSLAAEIVTPEIREKLIRLQHENKMLKLNQEGSDNEKIALLQSLLDDANLRKNELETENRLVNQRLLEVQSQVEELQKSLQDQGSKAEDSVLLKKKLEEHLEKLHEANNELQKKRAIIEDLEPRFNNSSLKIEELQEALRKKEEEMKQMEERYKKYLEKAKSVIRTLDPKQNQGAAPEIQALKNQLQERDRLFHSLEKEYEKTKSQREMEEKYIVSAWYNMGMTLHKKAAEDRLASTGSGQSFLARQRQATSSRRSYPGHVQPATAR
# chain 2: MWPQPRLPPRPAMSEETRQSKLAAAKKKLREYQQRNSPGVPTGAKKKKKIKNGSNPETTTSGGCHSPEDTPKDNAATLQPSDDTVLPGGVPSPGASLTSMAASQNHDADNVPNLMDETKTFSSTESLRQLSQQLNGLVCESATCVNGEGPASSANLKDLESRYQQLAVALDSSYVTNKQLNITIEKLKQQNQEITDQLEEEKKECHQKQGALREQLQVHIQTIGILVSEKAELQTALAHTQHAARQKEGESEDLASRLQYSRRRVGELERALSAVSTQQKKADRYNKELTKERDALRLELYKNTQSNEDLKQEKSELEEKLRVLVTEKAGMQLNLEELQKKLEMTELLLQQFSSRCEAPDANQQLQQAMEERAQLEAHLGQVMESVRQLQMERDKYAENLKGESAMWRQRMQQMSEQVHTLREEKECSMSRVQELETSLAELRNQMAEPPPPEPPAGPSEVEQQLQAEAEHLRKELEGLAGQLQAQVQDNEGLSRLNREQEERLLELERAAELWGEQAEARRQILETMQNDRTTISRALSQNRELKEQLAELQSGFVKLTNENMEITSALQSEQHVKRELGKKLGELQEKLSELKETVELKSQEAQSLQQQRDQYLGHLQQYVAAYQQLTSEKEVLHNQLLLQTQLVDQLQQQEAQGKAVAEMARQELQETQERLEAATQQNQQLRAQLSLMAHPGEGDGLDREEEEDEEEEEEEAVAVPQPMPSIPEDLESREAMVAFFNSAVASAEEEQARLRGQLKEQRVRCRRLAHLLASAQKEPEAAAPAPGTGGDSVCGETHRALQGAMEKLQSRFMELMQEKADLKERVEELEHRCIQLSGETDTIGEYIALYQSQRAVLKERHREKEEYISRLAQDKEEMKVKLLELQELVLRLVGDRNEWHGRFLAAAQNPADEPTSGAPAPQELGAANQQGDLCEVSLAGSVEPAQGEAREGSPRDNPTAQQIMQLLREMQNPRERPGLGSNPCIPFFYRADENDEVKITVI
# Variants of: B1
# Assay: coIP (co-immunoprecipitation, blot band intensity quantified)
# Conditions: with GM130 (endogenous) [human (endogenous in HeLa)]; HeLa cells, 100 ng/mL nocodazole for 16 hr (+); read off a plot
row,Variant,response [A.U]
1,chain 1 S238E S707E,6.5
2,chain 1 S238A S707A,5.5
3,chain 1 S238E,12
4,chain 1 S238A,16

# More lines, now with the values ahead:
row,response [A.U],Variant
1,11,chain 1 S707E
2,16,chain 1 S707A
